From article PMC6774351

Target: Alexa488-labelled NLRP3 (human)
Assay: MST

Kd: 78.9 nM
Substance: NEK7 (wild type; NEK7 monomer) (from UniProt Q8TDX7 1-302) (enzyme)
